Assay results from patent US6180103A, “Peptide p277 analogs, and pharmaceutical compositions comprising them for treatment or diagnosis of diabetes” (Yeda Research and Development Co., Ltd., priority 1994, dated 2001).

Tested on: T cells of IDDM patients and healthy blood-donors
Assay: Proliferative T cell response of IDDM patients and healthy blood donors
Format: cell-based, human
Settings: for Incidence of T-cell responses: positive = SI of 3 or greater

B1: hsp60: whole recombinant hsp60; human 60 kDa heat shock protein (protein, UniProt P10809 27-573, looked up)
60 kDa heat shock protein, …: AKDVKFGADARALMLQGVDLLADAVAVTMGPKGRTVIIEQSWGSPKVTKDGVTVAKSIDLKDKYKNIGAKLVQDVANNTNEEAGDGTTTATVLARSIAKEGFEKISKGANPVEIRRGVMLAVDAVIAELKKQSKPVTTPEEIAQVATISANGDKEIGNIISDAMKKVGRKGVITVKDGKTLNDELEIIEGMKFDRGYISPYFINTSKGQKCEFQDAYVLLSEKKISSIQSIVPALEIANAHRKPLVIIAEDVDGEALSTLVLNRLKVGLQVVAVKAPGFGDNRKNQLKDMAIATGGAVFGEEGLTLNLEDVQPHDLGKVGEVIVTKDDAMLLKGKGDKAQIEKRIQEIIEQLDVTTSEYEKEKLNERLAKLSDGVAVLKVGGTSDVEVNEKKDRVTDALNATRAAVEEGIVLGGGCALLRCIPALDSLTPANEDQKIGIEIIKRTLKIPAMTIAKNAGVEGSLIVEKIMQSSSEVGYDAMAGDFVNMVEKGIIDPTKVVRTALLDAAGVASLLTTAEVVVTEIPKEEKDPGMGAMGGMGGGMGGGMF
Question: Which “Incidence of T-cell responses” value (Healthy blood donors (n=14)) does the source give for B1 here?
Answer: The value was 21%.

Question: And the “T-cell responses (stimulation index)” value (IDDM patient 1. patient eight, 3.5 months since diagnosis)?
Answer: The value was “+ (SI values of 3 or greater were considered to be positive)”.

Question: And the “T-cell responses (stimulation index)” value (IDDM patient 3. H, 6 months since diagnosis)?
Answer: The value was “+ (SI values of 3 or greater were considered to be positive)”.

Question: And the “T-cell responses (stimulation index)” value (IDDM patient 4. patient seven, 3 weeks since diagnosis)?
Answer: The value was “+ (SI values of 3 or greater were considered to be positive)”.

Question: And the “T-cell responses (stimulation index)” value (IDDM patient 4. patient seven, 5 weeks since diagnosis)?
Answer: The value was “+ (SI values of 3 or greater were considered to be positive)”.

Question: And the “T-cell responses (stimulation index)” value (IDDM patient 5. SD, 6 weeks since diagnosis)?
Answer: Its value is “+ (SI values of 3 or greater were considered to be positive)”.

Question: What about the “T-cell responses (stimulation index)” value (IDDM patient 6. P, 4 weeks since diagnosis) of the same molecule?
Answer: Its value is “- (SI values of 3 or greater were considered to be positive)”.

Question: And the “T-cell responses (stimulation index)” value (IDDM patient 7. G, 5 weeks since diagnosis)?
Answer: Its value is “+ (SI values of 3 or greater were considered to be positive)”.

Question: What about the “T-cell responses (stimulation index)” value (IDDM patient 7. G, 7 weeks since diagnosis) of the same molecule?
Answer: The value was “+ (SI values of 3 or greater were considered to be positive)”.

Question: And the “T-cell responses (stimulation index)” value (IDDM patient 9. patient two, 2 weeks since diagnosis)?
Answer: Its value is “+ (SI values of 3 or greater were considered to be positive)”.

Question: And the “T-cell responses (stimulation index)” value (IDDM patient 10. T, 4 weeks since diagnosis)?
Answer: Its value is “+ (SI values of 3 or greater were considered to be positive)”.

Question: What about the “T-cell responses (stimulation index)” value (IDDM patient 12. patient nine, 6 weeks since diagnosis) of the same molecule?
Answer: Its value is “- (SI values of 3 or greater were considered to be positive)”.

Question: What about the “T-cell responses (stimulation index)” value (IDDM patient 15. patient five, 3 weeks since diagnosis) of the same molecule?
Answer: Its value is “- (SI values of 3 or greater were considered to be positive)”.

Question: What about the “T-cell responses (stimulation index)” value (IDDM patient 16. patient one, 2 months since diagnosis) of the same molecule?
Answer: Its value is “+ (SI values of 3 or greater were considered to be positive)”.

Question: What about the “T-cell responses (stimulation index)” value (IDDM patient 17. patient six, 4 weeks since diagnosis) of the same molecule?
Answer: Its value is “- (SI values of 3 or greater were considered to be positive)”.

Question: And the “T-cell responses (stimulation index)” value (IDDM patient 18. patient four, 4 weeks since diagnosis)?
Answer: Its value is “+ (SI values of 3 or greater were considered to be positive)”.

Question: And the “T-cell responses (stimulation index)” value (IDDM patient 19. A, 11.5 years since diagnosis)?
Answer: Its value is “+ (SI values of 3 or greater were considered to be positive)”.

Question: What about the “T-cell responses (stimulation index)” value (IDDM patient 20. N, 7.5 years since diagnosis) of the same molecule?
Answer: The value was “+ (SI values of 3 or greater were considered to be positive)”.

Question: What about the “T-cell responses (stimulation index)” value (IDDM patient 21. A, 5.7 years since diagnosis) of the same molecule?
Answer: Its value is “+ (SI values of 3 or greater were considered to be positive)”.

Question: What about the “Incidence of T-cell responses” value (IDDM patients (n=21)) of the same molecule?
Answer: The value was 86%.

Question: What about the “T-cell responses (stimulation index)” value (healthy blood donor 1) of the same molecule?
Answer: Its value is “- (SI values of 3 or greater were considered to be positive)”.

Question: And the “T-cell responses (stimulation index)” value (healthy blood donor 2)?
Answer: The value was “- (SI values of 3 or greater were considered to be positive)”.

Question: What about the “T-cell responses (stimulation index)” value (healthy blood donor 4) of the same molecule?
Answer: Its value is “- (SI values of 3 or greater were considered to be positive)”.

Question: And the “T-cell responses (stimulation index)” value (healthy blood donor 5)?
Answer: The value was “+ (SI values of 3 or greater were considered to be positive)”.

Question: And the “T-cell responses (stimulation index)” value (healthy blood donor 6)?
Answer: Its value is “- (SI values of 3 or greater were considered to be positive)”.

Question: And the “T-cell responses (stimulation index)” value (healthy blood donor 7)?
Answer: The value was “- (SI values of 3 or greater were considered to be positive)”.

Question: And the “T-cell responses (stimulation index)” value (healthy blood donor 8)?
Answer: Its value is “- (SI values of 3 or greater were considered to be positive)”.

Question: And the “T-cell responses (stimulation index)” value (healthy blood donor 9)?
Answer: The value was “- (SI values of 3 or greater were considered to be positive)”.

Question: What about the “T-cell responses (stimulation index)” value (healthy blood donor 10) of the same molecule?
Answer: Its value is “- (SI values of 3 or greater were considered to be positive)”.

Question: What about the “T-cell responses (stimulation index)” value (healthy blood donor 11) of the same molecule?
Answer: Its value is “+ (SI values of 3 or greater were considered to be positive)”.

Question: What about the “T-cell responses (stimulation index)” value (healthy blood donor 12) of the same molecule?
Answer: Its value is “- (SI values of 3 or greater were considered to be positive)”.

Question: What about the “T-cell responses (stimulation index)” value (healthy blood donor 13) of the same molecule?
Answer: The value was “+ (SI values of 3 or greater were considered to be positive)”.

Question: What about the “T-cell responses (stimulation index)” value (healthy blood donor 14) of the same molecule?
Answer: Its value is “- (SI values of 3 or greater were considered to be positive)”.
